# B1: eGFP-GGSG-Flag-RBM20-WT [human] / Transportin-3 [human (endogenous in HeLa)] (parent complex)
# chain 1: MVLAAAMSQDADPSGPEQPDRVACSVPGARASPAPSGPRGMQQPPPPPQPPPPPQAGLPQIIQNAAKLLDKNPFSVSNPNPLLPSPASLQLAQLQAQLTLHRLKLAQTAVTNNTAAATVLNQVLSKVAMSQPLFNQLRHPSVITGPHGHAGVPQHAAAIPSTRFPSNAIAFSPPSQTRGPGPSMNLPNQPPSAMVMHPFTGVMPQTPGQPAVILGIGKTGPAPATAGFYEYGKASSGQTYGPETDGQPGFLPSSASTSGSVTYEGHYSHTGQDGQAAFSKDFYGPNSQGSHVASGFPAEQAGGLKSEVGPLLQGTNSQWESPHGFSGQSKPDLTAGPMWPPPHNQPYELYDPEEPTSDRTPPSFGGRLNNSKQGFIGAGRRAKEDQALLSVRPLQAHELNDFHGVAPLHLPHICSICDKKVFDLKDWELHVKGKLHAQKCLVFSENAGIRCILGSAEGTLCASPNSTAVYNPAGNEDYASNLGTSYVPIPARSFTQSSPTFPLASVGTTFAQRKGAGRVVHICNLPEGSCTENDVINLGLPFGKVTNYILMKSTNQAFLEMAYTEAAQAMVQYYQEKSAVINGEKLLIRMSKRYKELQLKKPGKAVAAIIQDIHSQRERDMFREADRYGPERPRSRSPVSRSLSPRSHTPSFTSCSSSHSPPGPSRADWGNGRDSWEHSPYARREEERDPAPWRDNGDDKRDRMDPWAHDRKHHPRQLDKAELDERPEGGRPHREKYPRSGSPNLPHSVSSYKSREDGYYRKEPKAKSDKYLKQQQDAPGRSRRKDEARLRESRHPHPDDSGKEDGLGPKVTRAPEGAKAKQNEKNKTKRTDRDQEGADDRKENTMAENEAGKEEQEGMEESPQSVGRQEKEAEFSDPENTRTKKEQDWESESEAEGESWYPTNMEELVTVDEVGEEEDFIVEPDIPELEEIVPIDQKDKICPETCLCVTTTLDLDLAQDFPKEGVKAVGNGAAEISLKSPRELPSASTSCPSDMDVEMPGLNLDAERKPAESETGLSLEDSDCYEKEAKGVESSDVHPAPTVQQMSSPKPAEERARQPSPFVDDCKTRGTPEDGACEGSPLEEKASPPIETDLQNQACQEVLTPENSRYVEMKSLEVRSPEYTEVELKQPLSLPSWEPEDVFSELSIPLGVEFVVPRTGFYCKLCGLFYTSEETAKMSHCRSAVHYRNLQKYLSQLAEEGLKETEGADSPRPEDSGIVPRFERKKL
# chain 2: MEGAKPTLQLVYQAVQALYHDPDPSGKERASFWLGELQRSVHAWEISDQLLQIRQDVESCYFAAQTMKMKIQTSFYELPTDSHASLRDSLLTHIQNLKDLSPVIVTQLALAIADLALQMPSWKGCVQTLVEKYSNDVTSLPFLLEILTVLPEEVHSRSLRIGANRRTEIIEDLAFYSSTVVSLLMTCVEKAGTDEKMLMKVFRCLGSWFNLGVLDSNFMANNKLLALLFEVLQQDKTSSNLHEAASDCVCSALYAIENVETNLPLAMQLFQGVLTLETAYHMAVAREDLDKVLNYCRIFTELCETFLEKIVCTPGQGLGDLRTLELLLICAGHPQYEVVEISFNFWYRLGEHLYKTNDEVIHGIFKAYIQRLLHALARHCQLEPDHEGVPEETDDFGEFRMRVSDLVKDLIFLIGSMECFAQLYSTLKEGNPPWEVTEAVLFIMAAIAKSVDPENNPTLVEVLEGVVRLPETVHTAVRYTSIELVGEMSEVVDRNPQFLDPVLGYLMKGLCEKPLASAAAKAIHNICSVCRDHMAQHFNGLLEIARSLDSFLLSPEAAVGLLKGTALVLARLPLDKITECLSELCSVQVMALKKLLSQEPSNGISSDPTVFLDRLAVIFRHTNPIVENGQTHPCQKVIQEIWPVLSETLNKHRADNRIVERCCRCLRFAVRCVGKGSAALLQPLVTQMVNVYHVHQHSCFLYLGSILVDEYGMEEGCRQGLLDMLQALCIPTFQLLEQQNGLQNHPDTVDDLFRLATRFIQRSPVTLLRSQVVIPILQWAIASTTLDHRDANCSVMRFLRDLIHTGVANDHEEDFELRKELIGQVMNQLGQQLVSQLLHTCCFCLPPYTLPDVAEVLWEIMQVDRPTFCRWLENSLKGLPKETTVGAVTVTHKQLTDFHKQVTSAEECKQVCWALRDFTRLFR
# Variants of: B1
# Test: co-immunoprecipitation, mass spectrometry; cytoplasmic fractions, HeLa; normalized to Neg; n = 3; parent: 1.7; read off a plot
row,Variant,screen value
1,chain 1 R634Q,~0.9
2,"chain 1 R634Q, chain 1 S635E, chain 1 S637E",~0.3
3,chain 1 P633L,~1.5

# Variants of: B1
# Test: co-immunoprecipitation, western blot quantification; HeLa cells expressing eGFP-RBM20, cytoplasmic fraction; n = 3; parent: 3.3; read off a plot
row,Variant,response [relative HRP signal]
1,chain 1 R634Q,~1.6
2,"chain 1 R634Q, chain 1 S635E, chain 1 S637E",~1.2
3,chain 1 P633L,~2.4
